# Source: patent US20220146501A1
# Legend:
# [1] = biological target: anti-C-reactive protein antibody (MAB-1); assay: TR-FRET competition, acceptor emission; unlabeled CRP calibrator at 60.5 mg/L
# [2] = biological target: anti-C-reactive protein antibody (MAB-1); assay: TR-FRET competition; labeled anti-CRP MAB-1 with labeled CRP as tracer; unlabeled CRP calibrator at 60.5 mg/L
# [3] = biological target: anti-C-reactive protein antibody (MAB-1); assay: TR-FRET competition, acceptor emission; unlabeled CRP calibrator at 118.7 mg/L
# [4] = biological target: anti-C-reactive protein antibody (MAB-1); assay: TR-FRET competition, acceptor emission; unlabeled CRP calibrator at 8.1 mg/L
# [5] = biological target: anti-C-reactive protein antibody (MAB-1); assay: TR-FRET competition; labeled anti-CRP MAB-1 with labeled CRP as tracer; unlabeled CRP calibrator at 8.1 mg/L
# [6] = biological target: anti-C-reactive protein antibody (MAB-1); assay: TR-FRET competition; labeled anti-CRP MAB-1 with labeled CRP as tracer; unlabeled CRP calibrator at 118.7 mg/L
# [7] = biological target: anti-C-reactive protein antibody (MAB-1); assay: TR-FRET competition; labeled anti-CRP MAB-1 with labeled CRP as tracer; unlabeled CRP calibrator at 2.9 mg/L
# [8] = biological target: anti-C-reactive protein antibody (MAB-1); assay: TR-FRET competition; labeled anti-CRP MAB-1 with labeled CRP as tracer; unlabeled CRP calibrator at 20.4 mg/L
# [9] = biological target: anti-C-reactive protein antibody (MAB-1); assay: TR-FRET competition, acceptor emission; unlabeled CRP calibrator at 2.9 mg/L
# [10] = biological target: anti-C-reactive protein antibody (MAB-1); assay: TR-FRET competition, acceptor emission; unlabeled CRP calibrator at 20.4 mg/L
binder,measurement,setting,value
C-reactive protein (unlabeled analyte / calibrator) (protein) QTDMSRKAFVFPKESDTSYVSLKAPLTKPLKAFTVCLHFYTELSSTRGYSIFSYATKRQDNEILIFWSKDIGYSFTVGGSEILFEVPEVTVAPVHICTSWESASGIVEFWVDGKPRVRKSLKKGYTVGAEASIILGQEQDSFGGNFEGSQSLVGDIGNVNMWDFVLSPDEINTIYLGGPFSPNVLNWRALKYEVQGEVFTKPQLWP,Acceptor1RFU,[1],49700 RFU
same,FRETRatio,[2],3980
same,Acceptor1RFU,[3],29900 RFU
same,Acceptor1RFU,[4],162000 RFU
same,FRETRatio,[5],13100
same,FRETRatio,[6],2320
same,FRETRatio,[7],17100
same,FRETRatio,[8],8220
same,Acceptor1RFU,[9],210000 RFU
same,Acceptor1RFU,[10],103000 RFU
